Source: patent US20240180969A1 (published 2024)

Biological target: T1, peptide on HLA-A*11:01 (human)
T1 peptide: VVVGAVGVGK
Assay: activation reporter or marker
Procedure: Jurkat NFAT-Luciferase effector cells (JNL) cells were transfected on day 1 with TCR or CAR constructs using standard protocols for the Neon™ transfection system (ThermoFisher MPK5000). T2 HLA-A*11 target cells were loaded with peptide […] (SEQ ID NO: 110). Peptides were resuspended in DMSO, and serially-diluted 20 times, 3× per dilution. Serially diluted peptide solutions were added to T2 HLA-A*11 cells resuspended in peptide-loading media (RPMI 1640+1% BSA+1×P/S). This yielded peptide-loaded T2 HLA-A*11 cells at approximately ˜0.67E6/mL, with peptide concentrations ranging from ˜10 fM to 100 μM, including a control at 0 μM. Peptide-loaded T2 HLA-A*11 cells were incubated overnight at 37° C. in 384-well plates, plated at 10,000 cells per well (Corning 3570). On day 2, transfected JNL cells (10,000 cells/well) were added to the peptide-loaded T2 HLA-A*11 cells to a final volume of 30 μL. After a 6-hour incubation at 37° C., the One-Step™ Luciferase assay system (Firefly luciferase, BPS Bioscience, 60690) was used to determine luminescence intensity on a Tecan Infinite® M1000.

B1: Positive Control TCR (TRAV3-3*01/TRBV4*01) (TCR, V domains shown)
Valpha: GEQVEQRPPHLSVREGDSAVITCTYTDPNSYYFFWYKQEPGASLQLLMKVFSSTEINEGQGFTVLLNKKDKRLSLNLTAAHPGDSAAYFCAVSGGTNSAGNKLTFGIGTRVLVRP
Vbeta: ETAVFQTPNYHVTQVGNEVSFNCKQTLGHDTMYWYKQDSKKLLKIMFSYNNKQLIVNETVPRRFSPQSSDKAHLNLRIKSVEPEDSAVYLCASSRDWGPAEQFFGPGTRLTVL
  binding result: recognises
